Measurements reported in patent publication US20070129319.
Where a chain is given by its changes, count along the chain named.

Assays:
[1] = tested on: ubiquitin-Met-beta-galactosidase fusion protein
[2] = molecular target: ubiquitin-Met-beta-galactosidase fusion protein; remark: listed apart in the source

GST-DUB-3 fusion protein (pGEX-DUB-3)
cleavage of ubiquitin from the ubiquitin-Met-beta-galactosidase fusion protein (immunoblot with anti-beta-galactosidase) [1]: DUB-3 displayed deubiquitinating activity at least equivalent to that of DUB-1

GST-DUB-3C89S fusion protein (pGEX-DUB-3C89S)
cleavage of ubiquitin from the ubiquitin-Met-beta-galactosidase fusion protein (immunoblot with anti-beta-galactosidase) [1]: this activity was ablated by mutating the cysteine residue (C89S) conserved within the active site

B1: GST-DUB-1 fusion protein (pGEX-DUB-1) (protein)
chain: MVVALSFPEADPALSSPDAPELHQDEAQVVEELTVNGKHSLSWESPQGPGCGLQNTGNSCYLNAALQCLTHTPPLADYMLSQEHSQTCCSPEGCKLCAMEALVTQSLLHSHSGDVMKPSHILTSAFHKHQQEDAHEFLMFTLETMHESCLQVHRQSKPTSEDSSPIHDIFGGWWRSQIKCLLCQGTSDTYDRFLDIPLDISSAQSVKQALWDTEKSEELCGDNAYYCGKCRQKMPASKTLHVHIAPKVLMVVLNRFSAFTGNKLDRKVSYPEFLDLKPYLSEPTGGPLPYALYAVLVHDGATSHSGHYFCCVKAGHGKWYKMDDTKVTRCDVTSVLNENAYVLFYVQQANLKQVSIDMPEGRINEVLDPEYQLKKSRRKKHKKKSPFTEDLGEPCENRDKRAIKETSLGKGKVLQEVNHKKAGQKHGNTKLMPQKQNHQKAGQNLRNTEVELDLPADAIVIHQPRSTANWGRDSPDKENQPLHNADRLLTSQGPVNTWQLCRQEGRRRSKKGQNKNKQGQRLLLVC
cleavage of the Ub-Met-beta-gal fusion [2]: Deubiquitinating activity was demonstrated for both DUB-1 and DUB-3 fusion proteins by the cleavage of the Ub-Met-β-gal fusion

B2: GST-DUB-1C60S fusion protein (pGEX-DUB-1 (C60)) (protein)
chain: B1 chain with C60S
cleavage of the Ub-Met-beta-gal fusion [2]: DUB-1C60S (lane 3) and DUB-3C89S (lane 5) are catalytically inactive
